Target: CDK9 (UniProt P50750)
Assay: co-IP with FLAG or HA antibody, immunoblot
Details: reference: HA-TRIM28 wild type; sites S824

binding against the reference: weaker
Substance: TRIM28 (from UniProt Q13263) HA-TRIM28-S824A

— PMC8760265
